From the supplement of paper PMC11865577

Each sequence was assayed on G-clamp-N3 (biotin conjugate) (assay: pull-down binding Z-score (relative to library population); higher = stronger binding). Settings: RNA library: Library-1 (pre-miRNA loops + repeats).
How it was run: (§1)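 Binding is given as a Z-score against the library mean and standard deviation, calculated after removing the beads-only signal and averaging barcoded replicate probes without their highest and lowest values. Cy5- or Cy3-end-labelled RNA library (1 μg) was heat-folded in phosphate/NaCl/KCl buffer and incubated 60 min at 25 °C with streptavidin beads bearing 100 pmol of biotin-conjugated small molecule. After three washes, RNA eluted in hot SDS was hybridised to a DNA barcode microarray for 20 h at 55.5 °C.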
In the case of “GCAGGCCGUGAACUCGUCGAGCUGCGCGUGCGGCCGGUGCUCA [hsa-mir-1199]”, the “pull-down binding Z-score” value is reported as 0.693.
“GCAGGGACCCCUCCAAGUUGGGGACGGCAGC [hsa-mir-6858]” was tested, and the “pull-down binding Z-score” value was -0.0891.
“GCAGGUAGCUUUUUGAGAUCUACUGC [hsa-mir-106a]” was tested, and the “pull-down binding Z-score” value was 0.281.
“GCAGUCCUGUGGGAAUGAGAGAUGCCAAACUGGACCUGC [hsa-mir-3972]” was tested, and the “pull-down binding Z-score” value was 1.52.
For “GCAGUCUGCUUUGUGCCAACACUGGGGUGAUGACUGC [hsa-mir-3157]”, the “pull-down binding Z-score” value was 1.23.
For “GCAGUGUCGUGGUCACAGCUUGCUGC [hsa-mir-1273h]”, the “pull-down binding Z-score” value was 1.45.
In the case of “GCAUAAAAACAACUUUUGGGGGACAGGUAUGUUUUCUUGC [hsa-mir-5047]”, the “pull-down binding Z-score” value is reported as 0.0757.
In the case of GCAUAUAGAGUAUAUGC [hsa-mir-4657], the “pull-down binding Z-score” value is reported as 0.625.
With GCAUCCAGACAGCGGGCGAAUGC [hsa-mir-6836] the “pull-down binding Z-score” value was 0.0557.
With “GCAUCCUUGGAAUCUGCACUCAAGGGAUGC [hsa-mir-5089]” the “pull-down binding Z-score” value was 0.605.
GCAUGCCC [hsa-mir-1178] was tested, and the “pull-down binding Z-score” value was -0.547.
In the case of GCAUGGGGCUAGGAGGCCCCGCGC [hsa-mir-6825], the “pull-down binding Z-score” value is reported as -0.292.
“GCAUUUUAUCUAAGAUACACACAAAGCAAAUGC [hsa-mir-4439]” was tested, and the “pull-down binding Z-score” value was -1.12.
In the case of GCCACAUGAGCUGGGCCUCGUGGGC [hsa-mir-770], the “pull-down binding Z-score” value is reported as -0.657.
In the case of GCCAGACAUGCUCUUGC [hsa-mir-6894], the “pull-down binding Z-score” value is reported as -1.34.
For GCCAGAUGCUGAGCGAUGGC [hsa-mir-4730], the “pull-down binding Z-score” value was 0.503.
With “GCCAGCAACCUGAUUACCCCUCUUUGGC [hsa-mir-6851]” the “pull-down binding Z-score” value was -0.819.
With “GCCAGUCAGCGCUCACAUUAAGGCUGAC [hsa-mir-2277]” the “pull-down binding Z-score” value was -0.612.
With “GCCAGUGUGUAAAAUGAGAACUGAUA [hsa-mir-3074]” the “pull-down binding Z-score” value was 0.474.
With “GCCAGUGUUCAAGGGCCCCUCCUCUAGUACUCCCUGUUUGUGUUCUGCCACUGA [hsa-mir-6857]” the “pull-down binding Z-score” value was -0.797.
“GCCAUCUGGUUGUGACAUCACUGAUGGC [hsa-mir-7155]” was tested, and the “pull-down binding Z-score” value was -0.231.
In the case of GCCAUGGAAAGUAAUGGC [hsa-mir-548ax], the “pull-down binding Z-score” value is reported as 0.538.
In the case of GCCCCAGGGCAGGGGC [hsa-mir-4515], the “pull-down binding Z-score” value is reported as 1.01.
For GCCCGCUGUGUUCACUCGGGC [hsa-mir-602], the “pull-down binding Z-score” value was 0.773.
GCCCGGGCACCGCCCCUU [hsa-mir-718] was tested, and the “pull-down binding Z-score” value was -1.53.
With “GCCCUGGGCCGGGCGAUGUCCGCUUGGGGG [hsa-mir-6090]” the “pull-down binding Z-score” value was -0.223.
With GCCGCGGAAGAAGGGGAAGCGC [hsa-mir-6720] the “pull-down binding Z-score” value was 2.21.
For GCCGGAGCGGGC [hsa-mir-1181], the “pull-down binding Z-score” value was 1.74.
For “GCCGGGGCCUGGCGCUCCUCUACCUUGUCAGGUGACCCAGC [hsa-mir-4274]”, the “pull-down binding Z-score” value was -1.05.
With “GCCUCCUGGAUCUCUAGGUCUCAGGGC [hsa-mir-6744]” the “pull-down binding Z-score” value was -0.189.
GCCUCGCUUCCUGCCGGCGCGGC [hsa-mir-1538] was tested, and the “pull-down binding Z-score” value was -0.287.
For “GCCUCUCUGAGCAUGCAUUCCUGAGACUC [hsa-mir-5695]”, the “pull-down binding Z-score” value was -1.38.

What follows are sequences tested on TO-3-N3 (biotin conjugate) in the same assay as above. Settings: RNA library: Library-2.
How it was run: as §1
“GCAGGCCGUGAACUCGUCGAGCUGCGCGUGCGGCCGGUGCUCA [hsa-mir-1199]” was tested, and the “pull-down binding Z-score” value was 0.55.
With “GCAGGGACCCCUCCAAGUUGGGGACGGCAGC [hsa-mir-6858]” the “pull-down binding Z-score” value was 0.172.
“GCAGGUAGCUUUUUGAGAUCUACUGC [hsa-mir-106a]” was tested, and the “pull-down binding Z-score” value was -0.704.
“GCAGUCCUGUGGGAAUGAGAGAUGCCAAACUGGACCUGC [hsa-mir-3972]” was tested, and the “pull-down binding Z-score” value was 0.53.
With “GCAGUCUGCUUUGUGCCAACACUGGGGUGAUGACUGC [hsa-mir-3157]” the “pull-down binding Z-score” value was 0.502.
In the case of “GCAGUGUCGUGGUCACAGCUUGCUGC [hsa-mir-1273h]”, the “pull-down binding Z-score” value is reported as -0.396.
With “GCAUAAAAACAACUUUUGGGGGACAGGUAUGUUUUCUUGC [hsa-mir-5047]” the “pull-down binding Z-score” value was 2.96.
GCAUAUAGAGUAUAUGC [hsa-mir-4657] was tested, and the “pull-down binding Z-score” value was -0.323.
For GCAUCCAGACAGCGGGCGAAUGC [hsa-mir-6836], the “pull-down binding Z-score” value was -0.0821.
“GCAUCCUUGGAAUCUGCACUCAAGGGAUGC [hsa-mir-5089]” was tested, and the “pull-down binding Z-score” value was 0.451.
In the case of GCAUGCCC [hsa-mir-1178], the “pull-down binding Z-score” value is reported as 0.196.
With GCAUGGGGCUAGGAGGCCCCGCGC [hsa-mir-6825] the “pull-down binding Z-score” value was 0.451.
“GCAUUUUAUCUAAGAUACACACAAAGCAAAUGC [hsa-mir-4439]” was tested, and the “pull-down binding Z-score” value was 0.441.
GCCACAUGAGCUGGGCCUCGUGGGC [hsa-mir-770] was tested, and the “pull-down binding Z-score” value was 0.237.
For GCCAGACAUGCUCUUGC [hsa-mir-6894], the “pull-down binding Z-score” value was -0.504.
With GCCAGAUGCUGAGCGAUGGC [hsa-mir-4730] the “pull-down binding Z-score” value was -0.32.
“GCCAGCAACCUGAUUACCCCUCUUUGGC [hsa-mir-6851]” was tested, and the “pull-down binding Z-score” value was -0.53.
“GCCAGUCAGCGCUCACAUUAAGGCUGAC [hsa-mir-2277]” was tested, and the “pull-down binding Z-score” value was -0.289.
“GCCAGUGUGUAAAAUGAGAACUGAUA [hsa-mir-3074]” was tested, and the “pull-down binding Z-score” value was 0.677.
With “GCCAGUGUUCAAGGGCCCCUCCUCUAGUACUCCCUGUUUGUGUUCUGCCACUGA [hsa-mir-6857]” the “pull-down binding Z-score” value was 0.324.
In the case of “GCCAUCUGGUUGUGACAUCACUGAUGGC [hsa-mir-7155]”, the “pull-down binding Z-score” value is reported as 1.09.
For GCCAUGGAAAGUAAUGGC [hsa-mir-548ax], the “pull-down binding Z-score” value was -0.0453.
GCCCCAGGGCAGGGGC [hsa-mir-4515] was tested, and the “pull-down binding Z-score” value was -0.247.
In the case of GCCCGCUGUGUUCACUCGGGC [hsa-mir-602], the “pull-down binding Z-score” value is reported as -0.169.
With GCCCGGGCACCGCCCCUU [hsa-mir-718] the “pull-down binding Z-score” value was -0.0729.
With “GCCCUGGGCCGGGCGAUGUCCGCUUGGGGG [hsa-mir-6090]” the “pull-down binding Z-score” value was 0.811.
In the case of GCCGCGGAAGAAGGGGAAGCGC [hsa-mir-6720], the “pull-down binding Z-score” value is reported as 1.46.
With GCCGGAGCGGGC [hsa-mir-1181] the “pull-down binding Z-score” value was 0.493.
With “GCCGGGGCCUGGCGCUCCUCUACCUUGUCAGGUGACCCAGC [hsa-mir-4274]” the “pull-down binding Z-score” value was 0.564.
“GCCUCCUGGAUCUCUAGGUCUCAGGGC [hsa-mir-6744]” was tested, and the “pull-down binding Z-score” value was -0.282.
In the case of GCCUCGCUUCCUGCCGGCGCGGC [hsa-mir-1538], the “pull-down binding Z-score” value is reported as -0.255.
In the case of “GCCUCUCUGAGCAUGCAUUCCUGAGACUC [hsa-mir-5695]”, the “pull-down binding Z-score” value is reported as 0.286.

Each sequence was assayed on TO-3-N3-2 (biotin conjugate) in the same assay as above. Settings: RNA library: Library-2.
How it was run: as §1
For “GCAGGCCGUGAACUCGUCGAGCUGCGCGUGCGGCCGGUGCUCA [hsa-mir-1199]”, the “pull-down binding Z-score” value was 0.103.
With “GCAGGGACCCCUCCAAGUUGGGGACGGCAGC [hsa-mir-6858]” the “pull-down binding Z-score” value was 0.0497.
In the case of “GCAGGUAGCUUUUUGAGAUCUACUGC [hsa-mir-106a]”, the “pull-down binding Z-score” value is reported as -0.00277.
For “GCAGUCCUGUGGGAAUGAGAGAUGCCAAACUGGACCUGC [hsa-mir-3972]”, the “pull-down binding Z-score” value was 0.373.
“GCAGUCUGCUUUGUGCCAACACUGGGGUGAUGACUGC [hsa-mir-3157]” was tested, and the “pull-down binding Z-score” value was -0.203.
For “GCAGUGUCGUGGUCACAGCUUGCUGC [hsa-mir-1273h]”, the “pull-down binding Z-score” value was -0.171.
With “GCAUAAAAACAACUUUUGGGGGACAGGUAUGUUUUCUUGC [hsa-mir-5047]” the “pull-down binding Z-score” value was 2.38.
With GCAUAUAGAGUAUAUGC [hsa-mir-4657] the “pull-down binding Z-score” value was 0.0599.
With GCAUCCAGACAGCGGGCGAAUGC [hsa-mir-6836] the “pull-down binding Z-score” value was -0.113.
For “GCAUCCUUGGAAUCUGCACUCAAGGGAUGC [hsa-mir-5089]”, the “pull-down binding Z-score” value was -0.0765.
GCAUGCCC [hsa-mir-1178] was tested, and the “pull-down binding Z-score” value was 0.000996.
For GCAUGGGGCUAGGAGGCCCCGCGC [hsa-mir-6825], the “pull-down binding Z-score” value was 0.00553.
“GCAUUUUAUCUAAGAUACACACAAAGCAAAUGC [hsa-mir-4439]” was tested, and the “pull-down binding Z-score” value was 0.179.
With GCCACAUGAGCUGGGCCUCGUGGGC [hsa-mir-770] the “pull-down binding Z-score” value was -0.342.
With GCCAGACAUGCUCUUGC [hsa-mir-6894] the “pull-down binding Z-score” value was -0.349.
For GCCAGAUGCUGAGCGAUGGC [hsa-mir-4730], the “pull-down binding Z-score” value was -0.12.
